Positions count from the first letter of the chain named.

One may read the EC50 as the midpoint of the concentration-response curve. The EC50 (read off the curve) is the concentration that produces a half-maximal response.

In test [1] the target is T1, human CD73 ecto-domain recombinant protein (huCD73) (human, UniProt P21589 27-547).
T1 sequence: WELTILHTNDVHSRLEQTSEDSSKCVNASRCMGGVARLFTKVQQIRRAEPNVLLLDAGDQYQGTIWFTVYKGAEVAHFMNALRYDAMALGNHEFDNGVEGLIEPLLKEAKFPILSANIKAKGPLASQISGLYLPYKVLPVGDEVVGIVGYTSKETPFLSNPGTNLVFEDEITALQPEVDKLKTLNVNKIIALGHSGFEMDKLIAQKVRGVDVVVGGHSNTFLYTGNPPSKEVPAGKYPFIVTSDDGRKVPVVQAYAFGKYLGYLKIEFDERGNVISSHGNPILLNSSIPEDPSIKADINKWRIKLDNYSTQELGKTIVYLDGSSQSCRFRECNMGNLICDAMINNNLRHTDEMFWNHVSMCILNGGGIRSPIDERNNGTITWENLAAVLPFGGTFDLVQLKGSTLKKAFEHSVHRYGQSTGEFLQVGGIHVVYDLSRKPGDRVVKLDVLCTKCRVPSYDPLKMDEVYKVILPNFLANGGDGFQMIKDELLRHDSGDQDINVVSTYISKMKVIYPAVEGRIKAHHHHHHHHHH
Nature of the test: cell-based or functional assay.

In test [2] the target is T2, cynomolgus CD73 on the cell surface (293T/17-cynoCD73 cells) (cynomolgus (Macaca fascicularis), UniProt P21589 27-547 (human entry)).
T2 chain: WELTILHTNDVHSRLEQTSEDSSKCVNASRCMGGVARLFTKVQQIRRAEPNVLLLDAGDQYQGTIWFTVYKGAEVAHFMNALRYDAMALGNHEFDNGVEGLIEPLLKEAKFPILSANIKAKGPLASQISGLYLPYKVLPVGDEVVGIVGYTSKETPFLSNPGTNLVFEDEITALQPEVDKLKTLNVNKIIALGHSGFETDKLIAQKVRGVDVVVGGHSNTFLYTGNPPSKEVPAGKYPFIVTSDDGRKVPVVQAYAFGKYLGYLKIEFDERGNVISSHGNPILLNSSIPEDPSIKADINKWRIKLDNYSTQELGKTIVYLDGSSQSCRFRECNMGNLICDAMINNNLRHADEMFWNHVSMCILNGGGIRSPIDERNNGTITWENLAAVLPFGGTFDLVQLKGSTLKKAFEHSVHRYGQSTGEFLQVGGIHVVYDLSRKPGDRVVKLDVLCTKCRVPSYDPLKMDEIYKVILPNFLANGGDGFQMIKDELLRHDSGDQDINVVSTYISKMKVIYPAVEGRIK
The test can be described thus: cell-based or functional assay.

The target of test [3] is T1, human CD73 ecto-domain recombinant …. The test can be described thus: indirect ELISA, coated soluble huCD73. On the procedure: (§1) The indirect ELISA method was applied to evaluate the binding ability of each positive clone to soluble huCD73 protein. Soluble huCD73 was coated, and gradient diluted samples were incubated, then HPR-labeled secondary antibody was added, finally TMB was added to develop the color, and OD450 was read after termination.
(§2) 1 ug/ml of recombinant CD73 protein was coated on ELISA plates (Coning), incubate overnight at 4° C. The next day, wash 5 times in PBS and blocked with 200 ul/well 2% skimmed milk, a certain dose range of CD73 antibodies were incubated for 1 h at room temperature. Wash 5 times with PBST washing buffer (PBS, 0.05% Tween 20), add HRP-conjugated goat anti-mouse IgG (H+L) (Promega) and incubate at room temperature for 1 h to detect bound anti-CD73 antibodies; wash the plate 5 times again and add TMB (Life Technologies) for color development for 5 to 10 min; finally the reaction was stopped by adding 1N HCl, and the OD value was measured at 450 nm. GraphPad Prism software was used to generate data graphs and statistical affinity data.
Background: An ELISA detects its analyte on a solid surface through an enzyme-linked reagent.

Test [4] shares this target. Nature of the test: indirect ELISA, coated soluble huCD73, curve fit. How it is done: as §1, §2
Test [5] has the same target. Nature of the test: indirect ELISA, coated soluble huCD73, HRP-labelled secondary antibody, OD450. How it is done: as §1, §2

B1: 191C3A8B9 (antibody, mouse IgG1, kappa, V domains shown)
VH: QVQLKESGPGLVAPSQSLSITCTVSGFSLTNYGVHWVRQPPGKGLEWLGVIWAGGSTNYNSALMSRLSISKDNSKSQLFLKMNSLQADDTAMYYCARERGSSWGTMDYWGQGTSVTVSS
VL: QIVLTQSPAIMSASPGEKVTMTCSASSRVSYMHWYQQKSGTSPKRWIYDTSQLASGVPARFSGSGSGTSYSLTISSMEAEDAATYYCQQWSSNPYTFGGGTKLEMRR
notes: Hybridoma antibody, mouse IgG1 / mouse kappa full chains
In the case of B1, in test [1], the “Bottom (lower plateau of the fitted curve), blockade of soluble huCD73 enzyme activity (AMP hydrolysis, luciferase/CellTiter-Glo)” value is 5.55; the “IC50, blockade of soluble huCD73 enzyme activity (AMP hydrolysis, luciferase/CellTiter-Glo)” value is 2.41 nM; the “Top (upper plateau of the fitted curve), blockade of soluble huCD73 enzyme activity (AMP hydrolysis, luciferase/CellTiter-Glo)” value is 93.7. In addition, the “IC50, blockade of 5'exonuclease activity on 293T/17-Cyno CD73 cells” value (shortened to “IC50, blockade of 5'exonuclease activity”) in test [2] stood at 0.001 nM. The EC50 in test [3] is 0.279 nM. For the same molecule, in test [4], the Bottom turned out to be 0.0498 OD450 and the Top was 2.75 OD450. In addition, in test [5], the “EC50 (read off the curve)” value was ~0.04 µg/mL.

B2: S1B5 (antibody, human IgG1, kappa, V domains shown)
VH: EVQLKESGAELVKPGASVKISCKATGYTFTGYWIEWVKQRPGRGLEWIGEILPGSDITNYNEKFKGKATITADTSSNTAYMQLSSLTTEDSAIYYCARRGYDETGYAMDYWGQGTSVTVSS
VL: DIVMTQSPASLAVSLGQRATISCKASQSVDYDGDSYMNWYQQKPGQPPKLLIHAASNLESGIPARFSGSGSGTDFTLNIHPVEEEDAAVYFCQQSKEVPWTFGEGTKLEIKR
notes: Phage antibody, chimeric human IgG1 / human kappa full chains
B2: in test [1], the “Bottom (lower plateau of the fitted curve), blockade of soluble huCD73 enzyme activity (AMP hydrolysis, luciferase/CellTiter-Glo)” value worked out at 16.2; the “IC50, blockade of soluble huCD73 enzyme activity (AMP hydrolysis, luciferase/CellTiter-Glo)” value worked out at 3.26 nM; the “Top (upper plateau of the fitted curve), blockade of soluble huCD73 enzyme activity (AMP hydrolysis, luciferase/CellTiter-Glo)” value is 99.5. Further, in test [2], the “IC50, blockade of 5'exonuclease activity” value turned out to be 0.085 nM. Besides, the EC50 in test [3] came to 0.085 nM. Also, in test [4], the Bottom is 0.007 OD450 and the Top amounted to 2.93 OD450. For the same molecule, the “EC50 (read off the curve)” value in test [5] was ~0.08 nM.

B3: 66F2A8D6 (antibody, mouse IgG1, kappa)
heavy: QVHLQQSGAELAKPGASVNLSCKASGYAFTSYWMHWVKQRPGQGLEWIGYINPSSGLAKYNQKFKDKATLTTDKSSNTAYMQLSSLTYDDSAVYYCGRWLLSAWFAYWGQGTLVTVSAAKTTPPSVYPLAPGSAAQTNSMVTLGCLVKGYFPEPVTVTWNSGSLSSGVHTFPAVLQSDLYTLSSSVTVPSSTWPSETVTCNVAHPASSTKVDKKIVPRDCGCKPCICTVPEVSSVFIFPPKPKDVLTITLTPKVTCVVVDISKDDPEVQFSWFVDDVEVHTAQTQPREEQFNSTFRSVSELPIMHQDWLNGKEFKCRVNSAAFPAPIEKTISKTKGRPKAPQVYTIPPPKEQMAKDKVSLTCMITDFFPEDITVEWQWNGQPAENYKNTQPIMDTDGSYFVYSKLNVQKSNWEAGNTFTCSVLHEGLHNHHTEKSLSHSPGK
light: DIKMTQSPSSIYASLGERVTITCKASQGINTYLSWFQQKPGKSPKTLIYRANILVDGVPSRFSGSGSGQDYSLTINSLEYEDMGIYYCLQYDEFPYTFGGGTKLEIKRADAAPTVSIFPPSSEQLTSGGASVVCFLNNFYPKDINVKWKIDGSERQNGVLNSWTDQDSKDSTYSMSSTLTLTKDEYERHNSYTCEATHKTSTSPIVKSFNRNEC
notes: as for B1
On to B3, for which, in test [1], the “Bottom (lower plateau of the fitted curve), blockade of soluble huCD73 enzyme activity (AMP hydrolysis, luciferase/CellTiter-Glo)” value was 6.36; the “IC50, blockade of soluble huCD73 enzyme activity (AMP hydrolysis, luciferase/CellTiter-Glo)” value was found to be 1.96 nM; the “Top (upper plateau of the fitted curve), blockade of soluble huCD73 enzyme activity (AMP hydrolysis, luciferase/CellTiter-Glo)” value was 86.1. Also, the “IC50, blockade of 5'exonuclease activity” value in test [2] worked out at 0.077 nM. For the same molecule, in test [3], the EC50 turned out to be 0.153 nM. For the same molecule, in test [4], the Bottom amounted to 0.165 OD450 and the Top turned out to be 3.11 OD450. Also, the “EC50 (read off the curve)” value in test [5] was ~0.2 nM.

B4: 94A12G11F2 (antibody, mouse IgG1, kappa)
heavy: B3 heavy with H3Q, N19K, A28T, L57Y, A58T, Y60S, T72A, N77S, D89E
light: B3 light with K3R, I11M, G28D, T46S, A51S, N76S, E93D
notes: as for B1
With B4, in test [1], the “Bottom (lower plateau of the fitted curve), blockade of soluble huCD73 enzyme activity (AMP hydrolysis, luciferase/CellTiter-Glo)” value is 6.21; the “IC50, blockade of soluble huCD73 enzyme activity (AMP hydrolysis, luciferase/CellTiter-Glo)” value turned out to be 1.5 nM; the “Top (upper plateau of the fitted curve), blockade of soluble huCD73 enzyme activity (AMP hydrolysis, luciferase/CellTiter-Glo)” value is 87.8. Moreover, the “IC50, blockade of 5'exonuclease activity” value in test [2] was 0.006 nM. Moreover, the EC50 in test [3] came to 0.242 nM. Also, in test [4], the Bottom was found to be 0.0566 OD450 and the Top amounted to 2.94 OD450. Moreover, the concentration for a half-maximal effect (EC50 (read off the curve)) in test [5] is ~0.2 nM.

(Values after US20220064322A1 (JACOBIO PHARMACEUTICALS, published 2022).)
